B1: CyPPO19 V305M + F360T: variant of CyPPO19 PPO protein (SEQ ID NO: 1) (protein)
chain: MSEVDVAIVGGGLSGLSLAWRLQQSAPQYSVVLLEASDRLGGNITTQTAEGFVWELGPNSFAPTPALLQLIAEVGLQSELIRGDRHLPRYIYWRGQLYPLQPTRPLALATSNLLSPWGKVRAALGALGFVPPYLGSGDESVNSFFRRHLGQEVAERLVAPFVSGVYAGDPQQLSAAAAFRRIAQLEKLGGGLIAGALHLRRQQAPKPKPPTSVQMRPGELGSFKEGLAALPRAIAQQLKAPIHLQTPVQEITPDPKGGYLLRSGEQTWRARSVVLATPAYQTAELVAPFQPAIARVLATIPYPTMACVVLAYPAGLGRSVRPGFGVLIPRSQGIRTLGTIWSSCLFPQRTPAGWQVFTSTIGGATDPDLASLSEEAIVQQVQQDLNRLLDLPAAKARLLGMKVWRRAIPQYMVGYPEQWQQVTHALSQTPGLFLCSNYAEGVALGDRVEHGNRTAAAVAAYLSGGQP
modifications: Synthetic_PPO of Thermosynechococcus elongatus PKUAC-SCTE542 (comprising GenBank No. CP032152.1)
B2: CyPPO19 L327T + F360L: variant of CyPPO19 PPO protein (SEQ ID NO: 1) (protein)
chain: MSEVDVAIVGGGLSGLSLAWRLQQSAPQYSVVLLEASDRLGGNITTQTAEGFVWELGPNSFAPTPALLQLIAEVGLQSELIRGDRHLPRYIYWRGQLYPLQPTRPLALATSNLLSPWGKVRAALGALGFVPPYLGSGDESVNSFFRRHLGQEVAERLVAPFVSGVYAGDPQQLSAAAAFRRIAQLEKLGGGLIAGALHLRRQQAPKPKPPTSVQMRPGELGSFKEGLAALPRAIAQQLKAPIHLQTPVQEITPDPKGGYLLRSGEQTWRARSVVLATPAYQTAELVAPFQPAIARVLATIPYPTVACVVLAYPAGLGRSVRPGFGVTIPRSQGIRTLGTIWSSCLFPQRTPAGWQVFTSLIGGATDPDLASLSEEAIVQQVQQDLNRLLDLPAAKARLLGMKVWRRAIPQYMVGYPEQWQQVTHALSQTPGLFLCSNYAEGVALGDRVEHGNRTAAAVAAYLSGGQP
modifications: Synthetic_PPO of Thermosynechococcus elongatus PKUAC-SCTE542 (comprising GenBank No. CP032152.1)
B3: CyPPO19 L327T + F360M: variant of CyPPO19 PPO protein (SEQ ID NO: 1) (protein)
chain: MSEVDVAIVGGGLSGLSLAWRLQQSAPQYSVVLLEASDRLGGNITTQTAEGFVWELGPNSFAPTPALLQLIAEVGLQSELIRGDRHLPRYIYWRGQLYPLQPTRPLALATSNLLSPWGKVRAALGALGFVPPYLGSGDESVNSFFRRHLGQEVAERLVAPFVSGVYAGDPQQLSAAAAFRRIAQLEKLGGGLIAGALHLRRQQAPKPKPPTSVQMRPGELGSFKEGLAALPRAIAQQLKAPIHLQTPVQEITPDPKGGYLLRSGEQTWRARSVVLATPAYQTAELVAPFQPAIARVLATIPYPTVACVVLAYPAGLGRSVRPGFGVTIPRSQGIRTLGTIWSSCLFPQRTPAGWQVFTSMIGGATDPDLASLSEEAIVQQVQQDLNRLLDLPAAKARLLGMKVWRRAIPQYMVGYPEQWQQVTHALSQTPGLFLCSNYAEGVALGDRVEHGNRTAAAVAAYLSGGQP
modifications: Synthetic_PPO of Thermosynechococcus elongatus PKUAC-SCTE542 (comprising GenBank No. CP032152.1)
B4: CyPPO19 L327T + F360V: variant of CyPPO19 PPO protein (SEQ ID NO: 1) (protein)
chain: MSEVDVAIVGGGLSGLSLAWRLQQSAPQYSVVLLEASDRLGGNITTQTAEGFVWELGPNSFAPTPALLQLIAEVGLQSELIRGDRHLPRYIYWRGQLYPLQPTRPLALATSNLLSPWGKVRAALGALGFVPPYLGSGDESVNSFFRRHLGQEVAERLVAPFVSGVYAGDPQQLSAAAAFRRIAQLEKLGGGLIAGALHLRRQQAPKPKPPTSVQMRPGELGSFKEGLAALPRAIAQQLKAPIHLQTPVQEITPDPKGGYLLRSGEQTWRARSVVLATPAYQTAELVAPFQPAIARVLATIPYPTVACVVLAYPAGLGRSVRPGFGVTIPRSQGIRTLGTIWSSCLFPQRTPAGWQVFTSVIGGATDPDLASLSEEAIVQQVQQDLNRLLDLPAAKARLLGMKVWRRAIPQYMVGYPEQWQQVTHALSQTPGLFLCSNYAEGVALGDRVEHGNRTAAAVAAYLSGGQP
modifications: Synthetic_PPO of Thermosynechococcus elongatus PKUAC-SCTE542 (comprising GenBank No. CP032152.1)
B5: CyPPO19 L327T + F360I: variant of CyPPO19 PPO protein (SEQ ID NO: 1) (protein)
chain: MSEVDVAIVGGGLSGLSLAWRLQQSAPQYSVVLLEASDRLGGNITTQTAEGFVWELGPNSFAPTPALLQLIAEVGLQSELIRGDRHLPRYIYWRGQLYPLQPTRPLALATSNLLSPWGKVRAALGALGFVPPYLGSGDESVNSFFRRHLGQEVAERLVAPFVSGVYAGDPQQLSAAAAFRRIAQLEKLGGGLIAGALHLRRQQAPKPKPPTSVQMRPGELGSFKEGLAALPRAIAQQLKAPIHLQTPVQEITPDPKGGYLLRSGEQTWRARSVVLATPAYQTAELVAPFQPAIARVLATIPYPTVACVVLAYPAGLGRSVRPGFGVTIPRSQGIRTLGTIWSSCLFPQRTPAGWQVFTSIIGGATDPDLASLSEEAIVQQVQQDLNRLLDLPAAKARLLGMKVWRRAIPQYMVGYPEQWQQVTHALSQTPGLFLCSNYAEGVALGDRVEHGNRTAAAVAAYLSGGQP
modifications: Synthetic_PPO of Thermosynechococcus elongatus PKUAC-SCTE542 (comprising GenBank No. CP032152.1)
B6: CyPPO19 L327T + F360T: variant of CyPPO19 PPO protein (SEQ ID NO: 1) (protein)
chain: MSEVDVAIVGGGLSGLSLAWRLQQSAPQYSVVLLEASDRLGGNITTQTAEGFVWELGPNSFAPTPALLQLIAEVGLQSELIRGDRHLPRYIYWRGQLYPLQPTRPLALATSNLLSPWGKVRAALGALGFVPPYLGSGDESVNSFFRRHLGQEVAERLVAPFVSGVYAGDPQQLSAAAAFRRIAQLEKLGGGLIAGALHLRRQQAPKPKPPTSVQMRPGELGSFKEGLAALPRAIAQQLKAPIHLQTPVQEITPDPKGGYLLRSGEQTWRARSVVLATPAYQTAELVAPFQPAIARVLATIPYPTVACVVLAYPAGLGRSVRPGFGVTIPRSQGIRTLGTIWSSCLFPQRTPAGWQVFTSTIGGATDPDLASLSEEAIVQQVQQDLNRLLDLPAAKARLLGMKVWRRAIPQYMVGYPEQWQQVTHALSQTPGLFLCSNYAEGVALGDRVEHGNRTAAAVAAYLSGGQP
modifications: Synthetic_PPO of Thermosynechococcus elongatus PKUAC-SCTE542 (comprising GenBank No. CP032152.1)

tested on: PPO-deficient BT3 E. coli (ΔPPO); experiment: PPO-inhibiting herbicide tolerance test of PPO variants in E. coli (growth on herbicide-containing LB agar); type: cell-based; conditions: CyPPO19 variants in BT3 (ΔPPO) E. coli; LB agar with 0 to 2,000 μM herbicide, 37° C., dark, 16-20 hours
Outline: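 Tolerance was scored against wild-type enzyme: '−' for equal growth, one '+' per 10-fold gain, up to '+++++'. ΔPPO BT3 cells carrying variant plasmids, spotted as a 10-fold dilution series from OD600=0.5, grew 16-20 h at 37° C. in the dark on ampicillin LB agar containing 0 to 2,000 μM herbicide.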

Molecule | tolerance level relative to wild type, Carfentrazone | tolerance level relative to wild type, Flumioxazin | tolerance level relative to wild type, Fomesafen | tolerance level relative to wild type, Oxyfluorfen | tolerance level relative to wild type, Saflufenacil | tolerance level relative to wild type, Sulfentrazone | tolerance level relative to wild type, Tiafenacil
B1 | + (‘+’ per each 10-fold resistance) | ++ (‘+’ per each 10-fold resistance) | ++ (‘+’ per each 10-fold resistance) | + (‘+’ per each 10-fold resistance) | ++ (‘+’ per each 10-fold resistance) | + (‘+’ per each 10-fold resistance) | ++ (‘+’ per each 10-fold resistance)
B2 | + (‘+’ per each 10-fold resistance) | ++++ (‘+’ per each 10-fold resistance) | ++ (‘+’ per each 10-fold resistance) | ++ (‘+’ per each 10-fold resistance) | + (‘+’ per each 10-fold resistance) | ++ (‘+’ per each 10-fold resistance) | ++++ (‘+’ per each 10-fold resistance)
B3 | + (‘+’ per each 10-fold resistance) | +++ (‘+’ per each 10-fold resistance) | + (‘+’ per each 10-fold resistance) | ++ (‘+’ per each 10-fold resistance) | + (‘+’ per each 10-fold resistance) | + (‘+’ per each 10-fold resistance) | +++ (‘+’ per each 10-fold resistance)
B4 | + (‘+’ per each 10-fold resistance) | ++++ (‘+’ per each 10-fold resistance) | + (‘+’ per each 10-fold resistance) | ++ (‘+’ per each 10-fold resistance) | ++ (‘+’ per each 10-fold resistance) | ++ (‘+’ per each 10-fold resistance) | ++++ (‘+’ per each 10-fold resistance)
B5 | + (‘+’ per each 10-fold resistance) | ++++ (‘+’ per each 10-fold resistance) | + (‘+’ per each 10-fold resistance) | ++ (‘+’ per each 10-fold resistance) | ++ (‘+’ per each 10-fold resistance) | +++ (‘+’ per each 10-fold resistance) | ++++ (‘+’ per each 10-fold resistance)
B6 | + (‘+’ per each 10-fold resistance) | + (‘+’ per each 10-fold resistance) | + (‘+’ per each 10-fold resistance) | + (‘+’ per each 10-fold resistance) | + (‘+’ per each 10-fold resistance) | + (‘+’ per each 10-fold resistance) | ++ (‘+’ per each 10-fold resistance)
